Experimental data as given in patent US20100311955A1 (SHANHAI GUOJIAN BIO TECH INSTITUTE, published 2010).
“And” between values parts separate entries of the source, which are not always exact repeats. Equal values may be shown once.

T1: human CD34 (antigen on human myeloid leukemia cell KG-1a) (human, UniProt P28906 32-385)
T1 construct: whole, on cells; Target in all assays is CD34 on KG-1a cells, which highly express it; also called antigen CD34
T1 sequence (looked up): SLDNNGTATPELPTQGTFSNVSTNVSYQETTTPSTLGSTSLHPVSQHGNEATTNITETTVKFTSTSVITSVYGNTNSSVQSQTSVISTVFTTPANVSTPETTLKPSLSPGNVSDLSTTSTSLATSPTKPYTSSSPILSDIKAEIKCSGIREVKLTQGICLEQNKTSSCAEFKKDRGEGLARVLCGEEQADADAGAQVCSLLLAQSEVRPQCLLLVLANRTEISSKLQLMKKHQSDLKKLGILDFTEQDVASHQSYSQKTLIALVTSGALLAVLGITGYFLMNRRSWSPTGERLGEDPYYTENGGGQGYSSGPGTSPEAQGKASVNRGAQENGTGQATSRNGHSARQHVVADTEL

B1: humanized antibody h4C8 (h4C8Hb/h4C8Lb) (antibody, human IgG1, V domains shown)
VH: QIQLVQSGSELKKPGASVKVSCKASGYTFTNYGMNWVRQAPGQGLKWMGWINTNTGEPKYAEEFKGRFALSLDTSVSTAYLQINSLKAEDTAVYFCARGYGNYARGAWLAYWGQGTLVTVSS
VL: DVLLTQSPLSLPVTLGQPASISCRSSQTIVHSNGNTYLEWFQQRPGQSPRLLIYQVSNRFSGVPDRFSGSGSGTDFTLKISRVEAEDVGVYYCFQGSHVPRTFGGGTKVEIKR
notes: CDR-grafted antibody with nine murine framework residues kept; also called humanized anti-CD34 antibody; hu4C8
B2: anti-human CD34 monoclonal antibody 4C8 (antibody, V domains shown)
VH: QIQLVQSGPELKKPGETVNISCKASGYTFTNYGMNWVKQAPGKGLKWMGWINTNTGEPKYAEEFKGRFALSLETSASTAYLQINNLKNEDTATYFCARGYGNYARGAWLAYWGQGTLVTVSA
VL: DVLLTQTPLSLPVSLGDQASISCRSSQTIVHSNGNTYLEWFLQKPGQSPKLLIYQVSNRFSGVPDRFSGSGSGTDFTLKISRVEAEDLGVYYCFQGSHVPRTFGGGTKLEIKR
notes: Mouse hybridoma antibody purified on Protein G; also called murine-derived monoclonal antibody 4C8; FITC-4C8
B3: chimeric antibody c4C8 (antibody, human IgG1, kappa, V domains shown)
VH: QIQLVQSGPELKKPGETVNISCKASGYTFTNYGMNWVKQAPGKGLKWMGWINTNTGEPKYAEEFKGRFALSLETSASTAYLQINNLKNEDTATYFCARGYGNYARGAWLAYWGQGTLVTVSA
VL: DVLLTQTPLSLPVSLGDQASISCRSSQTIVHSNGNTYLEWFLQKPGQSPKLLIYQVSNRFSGVPDRFSGSGSGTDFTLKISRVEAEDLGVYYCFQGSHVPRTFGGGTKLEIKR
notes: also called 4C8 chimeric antibody

What was measured:
[1] = target: human CD34 (antigen on human myeloid leukemia cell KG-1a) (human) (UniProt P28906); test: flow cytometry competition on KG-1a cells, competitor FITC-My10; single test
[2] = target: human CD34 (antigen on human myeloid leukemia cell KG-1a) (human) (UniProt P28906); test: flow cytometry competition on KG-1a cells, competitor FITC-My10; mean of 3 tests
[3] = target: T1, human CD34 (antigen on human myeloid …); test: flow cytometry competition on KG-1a cells, competitor FITC-4C8
Protocol: A fixed subsaturating concentration of fluorescently labeled antibody FITC-4C8 and serial dilution of unlabeled purified antibodies were mixed respectively and then added into target KG-1a cells (1×10⁶/ml), and incubated at 4° C. for 60 min, the cells were washed twice with 1% FCS-PBS and examined by FCM using Cellquest software for analysis. Humanized anti-CD3 monoclonal antibody hu12F6 (preparation see to Li B H, Wang H, Dai J X, Ji J J, Qian W Z, Zhang D P, Hou S, Guo Y J. Construction and characterization of a humanized anti-human CD3 monoclonal antibody 12F6 with effective immunoregulation functions. Immunology 2005, 116(4):487-98) was used as control. Triplicate tubes were set for each concentration of the competitive antibody. The IC₅₀ values were calculated, with the maximum fluorescence intensity indicating the average fluorescence intensity obtained in the absence of competitive antibody.

[4] = target: T1, human CD34 (antigen on human myeloid …); test: flow cytometry competition on KG-1a cells, competitor FITC-My10; single test
Protocol: (§1) Immunology. 2005, 116(4):487-98) was used as control. Triplicate tubes were set for each concentration of the competitive antibody. The IC₅₀ values were calculated, with the maximum fluorescence intensity indicating the average fluorescence intensity obtained in the absence of competitive antibody. Repeating this test for 3 times, and gaining statistical the result, see to Table 2.

[5] = target: T1, human CD34 (antigen on human myeloid …); test: flow cytometry competition on KG-1a cells, competitor FITC-My10; mean of 3 tests
Protocol: as §1

| IC50 [1] | IC50 [2] [µg/mL] | IC50 [3] [µg/mL] | IC50 [4] | IC50 [5] [µg/mL] | Molecule |
| --- | --- | --- | --- | --- | --- |
| 8.67 µg/mL and 9.23 µg/mL and 8.18 µg/mL | 8.69 | – | – | – | murine-derived monoclonal antibody My10 (anti-CD34) |
| – | – | 1.76 | 1.11 µg/mL and 1.14 µg/mL and 1.02 µg/mL | 1.09 | B1 |
| – | – | 1.72 | – | – | B2 |
| – | – | 1.69 | – | – | B3 |
